Values of other authors as cited in publication PMC6719960.

Biological target: claudin-4 (UniProt O14493)
Chain of UniProt O14493 (O14493 whole entry): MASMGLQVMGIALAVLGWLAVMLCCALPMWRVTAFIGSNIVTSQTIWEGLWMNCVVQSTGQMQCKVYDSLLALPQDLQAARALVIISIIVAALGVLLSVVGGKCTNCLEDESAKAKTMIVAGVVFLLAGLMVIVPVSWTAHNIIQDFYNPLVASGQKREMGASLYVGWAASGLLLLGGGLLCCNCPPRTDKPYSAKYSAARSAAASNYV

Substance: C-CPE C-terminal fragment (from UniProt P01558)
- Kd: 500 pM
